Data published in US9199028B2, “Use of entrained neutrophils to treat metastatic and micrometastatic disease in at risk patients” (MEMORIAL SLOAN-KETTERING CANCER CENTER, priority 2010, dated 2015).
Entries after “also recorded” stand apart in the source; their conditions may differ.

Tests used:
neutrophils = assay: In vivo rhG-CSF administration (neutrophil mobilization and lung sequestration); design: species or system mouse; conditions: mice
Experimental: Mice were orthotopically injected with 5×10^6 luciferase labelled 4T1 cells. 24 hours later Apocynin (2.4 g/liter) was administered in sugar sweetened drinking water. Control animals were treated with sugar sweetened water. Drinking water for both Apocynin treated and control mice were replaced every two days. Time-Lapse Microscopy 20,000 4T1 cells were labelled with CellTracker-Red (molecular Probes) according to the manufacturer instructions and plated on a chamber slide. 4 hours later, 400,000 neutrophils, isolated from 4T1 tumour-bearing Balb/c Ube-GFP mice, were added to the culture. Live imaging of Caspase 3 activation was done by labelling the tumour cells with the Caspase 3 substrate NucView 488 (Biotium) prior to the addition of GFP negative TENs. Images were taken every 10 minutes using the MetaMorph imaging system. Neutrophil Transfer Female nude mice were injected with 5×10^4 luciferase labelled 4T1 cells to the tail vein. 4 hours later, the mice were injected with 5×10^6 TENs or G-CSF mobilized neutrophils into the tail vein. Control mice were injected with vehicle. Formation of lung metastases was monitored using the IVIS-200 optical in vivo imaging system. Chemokine Administration rhG-CSF (Neupogen, Amgen) was administered daily (250 microg/kg/day) s.c. for 4 consecutive days. In vitro neutrophil stimulation—neutrophils were isolated from naïve mice and co-cultured with tumour cells in the presence of mCCL2, mCCL5 (both from R&D) or rhG-CSF (all at 20 ng/ml) or with TGF-Beta (R&D) (up to 200 pMolar). Human neutrophils purified from healthy volunteers were stimulated in vitro with hCCL2, hCCL5, hCCL3, hCCL4, hCXCL1, hCXCL12 and hCXCL16 (all from R&D at 100 ng/ml) or with rhG-CSF (20 ng/ml). Statistical Analysis For statistical analysis, the data is presented as mean±SEM and were analyses using Students t tests. Differences were considered significant when p<0.05.
In vivo administration of Apocynin: Mice were orthotopically injected with 5×10^6 luciferase labelled 4T1 cells. […] Formation of lung metastases was monitored using the IVIS-200 optical in vivo imaging system. […]

4T1 cells = assay: In vitro killing assay: naïve mouse neutrophils co-cultured with luciferase labelled 4T1 cells in the presence of chemokines; assay type: cell-based; conditions: naïve mouse neutrophils co-cultured with 4T1 cells, chemokine 20 ng/ml, overnight
Excerpt: Antibodies used for immunohistochemistry—MMP9, F4/80 and CCR2 (all from AbCam), Myeloperoxidase (Dako), Ly-6G and Cd11b (both from BD), and Cleaved Caspase 3 (Cell signalling). Antibodies used for western blotting—Actin (Sigma), CCL2 (AbCam) and CCL5 (R&D) p-SMAD2 (cell signalling). Antibodies used for FACS analysis FITC-Ly-6G, FITC-Cd11b, FITC-F4/80, FITC-Cd34 and FITC-c-Kit (all from BD) and VEGFR1-AP (R&D). Neutrophil Depletion Neutrophil depletion was achieved using daily IP injections of 12.5 μg Rat anti-Gr-1 antibody (BD) or Rat anti-Ly-6G antibody (BD) starting on day 3 post tumour engraftment. Starting on day 14, neutrophil depleting antibodies were administered twice daily. Control mice were injected with […] Rat isotype control (BD). Neutrophil depletion was monitored by manual blood differentials and FACS analysis. Flow Cytometry Peripheral blood was collected into EDTA-coated tubes, washed and resuspended in FACS buffer solution (PBS, 2% heat-inactivated FCS, 5 mM EDTA, and 0.02% sodium azide). The samples were blocked with […] and then incubated with fluorophore-conjugated antibodies. Erythrocytes were then lysed with FACS lysing solution (BD Biosciences) and the cell suspensions were analyzed on a FACSCalibur (BD Biosciences). Colony Formation Assay Female nude mice were orthotopically injected with 5×10^6 puromicin resistant 4T1 cells. On days 7 and 14 post tumour engraftment the mice were sacrificed and perfused with PBS. The lungs and livers were removed, washed with PBS and dissociated with Collagenase A (Roche). The single cell suspension was then plated onto puromicin containing media and selected for 14 day. Colonies were stained with Methylene-Blue and counted manually. Mouse Neutrophil Purification Whole blood was collected by cardiac puncture using heparinized (Sigma) syringe. The blood was diluted with 5 volumes of PBS containing 0.5% BSA and subjected to a discontinuous Histopaque (Sigma) gradient (1.077 and 1.119). Neutrophils were collected from the 1.077-1.119 interface, lymphocytes and monocytes collected from the plasma-1.077 interface. RBCs were eliminated by hypotonic lysis. The cells were washed twice with PBS-BSA and re-suspended in OptiMEM (Invitrogen) 0.5% FBS in a final concentration of 2×10^6 cells/ml. Neutrophil purity and viability were determined visually and were consistently >98%. Human Neutrophil Purification As part of a Memorial Sloan-Kettering Cancer Center institutionally approved protocol, blood samples (˜10 cc) were collected from healthy volunteers or from patients who were already having blood drawn for pre-surgical testing. Patients were consented accordingly as part of the approved protocol. […] Patients had either mastectomies or lumpectomies planned and had blood drawn prior to definitive surgical removal of their primary tumor or chemotherapy. Blood samples were transferred to the lab for analysis no more than 1 hour post-blood draw. Heparinzed blood (20 U/ml final) was mixed with an equal volume of Dextran 500 (3% in saline) and incubated 30 minutes at room temperature. The leukocyte-rich supernatant was layered on top of histopaque 1077 (Sigma) and centrifuged. Neutrophils, collected in the pellet fraction, were resuspended in 10 ml 0.2% NaCl for 30 seconds to remove contaminating erythrocytes. Isotonicity was restored by the addition of 10 ml 1.6% NaCl. Neutrophils were than washed three times in Hanks's balanced salt solution and resuspended in RPMI+FCS2%. In vitro Killing Assay Luciferase labelled cells (5,000/well) were plated on a 96-well, flat bottom white polystyrene tissue culture plate in OptiMEM 0.5% FBS (mouse neutrophils) or RPMI 2% FBS (human neutrophils). 4 hours later, purified neutrophils (100,000/well for mouse neutrophils and 5000 for human neutrophils) were added to the plated tumour cells and co-cultured overnight. […]

B1: rhG-CSF: recombinant methionyl human granulocyte colony-stimulating factor (Neupogen, Amgen) (protein, chains of the INN, looked up)
chain: MTPLGPASSLPQSFLLKCLEQVRKIQGDGAALQEKLCATYKLCHPEELVLLGHSLGIPWAPLSSCPSQALQLAGCLSQLHSGLFLYQGLLQALEGISPELGPTLDTLQLDVADFATTIWQQMEELGMAPALQPTQGAMPAFASAFQRRAGGVLVASHLQSFLEVSYRVLRHLAQP
modifications: N-terminal methionine
With B1 the “circulating neutrophils after rhG-CSF administration” value (neutrophils; 250 μg/kg/day s.c.) was “significant increase in circulating and lung-associated neutrophils; also recorded: significant increase in circulating and lung-associated neutrophil numbers”, the “increase of circulating neutrophil numbers” value (neutrophils; 250 ug/kg/day s.c. for 4 consecutive days) was 2-4 fold and the “lung-associated neutrophils (Ly-6G or myeloperoxidase immunohistochemistry)” value (neutrophils; rhG-CSF administration) was “increase in lung-associated neutrophils”. For the same molecule, the “neutrophil mediated killing of 4T1 cells (tumor cell viability by luciferase activity)” value (4T1 cells) was “does not induce neutrophil mediated cell killing; also recorded: does not induce a cytotoxic neutrophil response; also recorded: did not induce a cytotoxic neutrophil response in vitro” and the “neutrophil mediated killing of 4T1 cells (tumor cell viability by luciferase activity)” value (4T1 cells; listed as G-CSF) was “no significant effect on tumor-cell viability”.
